Data from a protein production outcome set (Wang et al. 2014).

Test: label from the status in PepcDB records

Sequence: MSRKLQDSAFRLLKKAAYDIDHDRYKKAFENLDKVEKIEKEVNNPEISYHLLFFKGFAKYRIDELEESLALFGKALEISWDLFSKEPEKEDYRSFMRDTIGSIGDILLKLEDPVKAREYISPMKGIFEKTVLGFEKLLESDPENPEYLEDFLKTIEHIGLCFEAGELTGDAVPLFDKKFDLIEKLLKSETEISEHLSSLDDSLMNFGRMCEGEEYLEEEYIEEAKRVYDRAIEIYGKVLDKDPENSETKVYLSYIYRYMAGMYSDQENLVKAEECYKEALGLLESEIENEPENIPVSENIEVSENISVPKNILFSMAIADMYKDSGLIFSDTEDTTKARDYYTKARETFRGLINKYPDLLEADKNLASSLDELAELFSEIGDFESAEMCYKDELNIYENLLQKEPENPENPEYSLKLSDIYRELGDLFAEEEEIEKARAYYDKEIEIYENLHPAEADKLMLEANKADTWNQIGRLYAEEEPETAVQYHERALPIFLEAFESDPTSEFFHEELLETLTVLGTLFKENREFEKAIRMYERVLEVQKQLLEIMPPASCHDHDHDHNLNHSHNLNHSHNLNHTHDLNHDHDLNHDLDHDHEMDHDHALEHCHDLDIETTYFELGVLHSEIGDEEKASVYHRQALERFEQIIAEQSGNPEILILTSGKAFFSGMSLLEKLESENKDSSIARKYYELALRTIEKLYEAYPMNLKLQEMLASFAEQIGDIYRDADKLEETIQEYEYAYRSLKILYENDPENPKHLHHMLGALNNIGIGYSVTDQQEKGKECFEKALALNESLAKSNPEDLNPLRRNFLLFSNYANLLEELGDSKTAKEYRKKAEELDAKLTEEDPEWTSLVEEL
- protein production: failed

Sequence: MSRKPLIAGNWKMNLNHYEAIALVQKIAFSLPDKYYDRVDVAVIPPFTDLRSVQTLVDGDKLRLTYGAQDLSPHDSGAYTGDVSGAFLAKLGCSYVVVGHSERRTYHNEDDALVAAKAATALKHGLTPIVCIGEHLDVREAGNHVAHNIEQLRGSLAGLLAEQIGSVVIAYEPVWAIGTGRVASAADAQEVCAAIRKELASLASPRIADTVRVLYGGSVNAKNVGDIVAQDDVDGGLVGGASLDGEHFATLAAIAAGGPLP
- protein production: not failed

Sequence: MSRKSAPSSTAAPAPKLAADRIRATARELFYREGIRAVGVDAIVSAAGVTKPSLYRSFSSKDELAASYLRDYETEFWSRFDAGAQRHPDDPRAQLRLYLESLAERAANAGPYRGCGLSNAAVEYPDPDHPARLVAEAHKRELRRRLIDMARRMGAREPEVLGDGLMLLIEGAFISGQLFHGDGPARHVARLADRLIEASL
- protein production: failed

Sequence: MSRLSAAVVAIDGPAGTGKSSVSRRLARELGARFLDTGAMYRIVTLAVLRAGADPSDIAAVETIASTVQMSLGYDPDGDSCYLAGEDVSVEIRGDAVTRAVSAVSSVPAVRTRLVELQRTMAEGPGSIVVEGRDIGTVVFPDAPVKIFLTASAETRARRRNAQNVAAGLADDYDGVLADVRRRDHLDSTRAVSPLQAAGDAVIVDTSDMTEAEVVAHLLELVTRRSEAVR
- protein production: not failed

Sequence: MSRMMPARVRSEGIALYAKGFLNDPIETDFKLTAEIDGEEVSYDLDGAQDSCTCAVFQQNHRYCKHIAAIEEYLKNQDKGSQETKDKEIKGAERALFGENVAFLDAVNGETQLNFNTDQYSIEVQIEDNSQLYDYFSMDYFLYFDLKLRSKNLGRSYVIKDIPYFLRALKNYSQYSLGSLHYIDLFFDNFDEASQEFLTFLLKIDSKSDEALTKSLYIKNGRYLNIPFLFLEEAMDLVSALENYQLQITGRTVNYFTFIALDNDSEIFKFKVESQQDYIELKLYSEDYHNFYDYSLLYANNVFYKLNQEQRRLLLVLDKQFAKKSQIKFSYADKDKLAQALQQLSTLGEIEAPDHFVVRPFDAKFTFDLLEDQTISLAMTFDYGSFSIDSFHDLETLEFSRDLRKEQKIFALMERLQFAKAFNSSLNIPENLSEHFFLKILPAFQKLGQIELSPTLRNMRMDEVPEIHIDSQGGLLDISFDIPQVEDGEFANVIAKLQENAEFYISESGKFYHFNEKFDRLKAALNELDDQFVIQGSSLHVNINRSFQISKIFENIGGASFSEKFKSLYQHLTHPEEFPYEKPEHIKASLRSYQETGVRWMSMLSHYNLGGILADDMGLGKTVQAITFILSNLKKDESVLITAPASLTYNWASEFEKFTDEIDFAVIDGTKAERSKEIQEKHQIYITSYGSFLKDFEDYQDKKLNYLLLDEAQVVKNYSSKTNKSLSALNVEHTFALSGTPLENRIEEIWAIFQVVMPGFLPKREKFNKMEPSVISRLIQPFIMRRKKEDVLEELPEKMEITVYNQLADDQKVIYLAQLELMQKQVLEMDSAALSRSRIEILAGITRLRQICNTPALFMDDYKGSSGKLERLRELLAQIKDSGHRPLIFSQFTKVFPHIEKLMEEQEMTAYKLTGSTPIKDRLSMVQAFNAGSRDAFLVSLKAGGVGLNLTSADVVILVDLWWNPAVEEQAIARAHRMGQKNTVEVIRLITKGTIEEKIMEIQERKKDLIANVLEGDTVDKVLSEAEIREILGV
- protein production: failed

Sequence: MSRNEVLLNGDINFKEVRCVGDNGEVYGIISSKEALHIAQNLGLDLVLISASAKPPVCKVMDYNKFRYQNEKKIKEAKKKQKQIEIKEIKLSTQIAQNDINYKVKHAREFIESNKHVKFKVVLKGRESQNSKAGLDVLFRVQTMMQDLANPEKEPKTEGRFVSWMFVPKAKEAPKNEKKTKENNPPFNRINLMKGENHAKNED
- protein production: failed

Sequence: MSRNKGVQYLSSSEHSLKDYLPILSMAGLILIVQVLALLLSMPMEINDMQAFEDPTQVSNSIYYIVMILVFTLFVLIAIKKNMKWIISLLIYLAIVSTLYYVFFALFTLIPALAGLENIASLLLSIGLTVLLYKYPEWYVIDLLGVCIAGGVSALIGISLSIIPVVVLLILLAVYDAISVYKTKHMIAMAEGVMDLKLPILFIIPKHLNYSFITEGFKEGEKREAFFMGLGDAVMPTLLVVSANVFLENGGLSYPVLGAMLGTLVGHIFLSILVMRGKPQAGLPFLNSGAIIGFFIGVLFSGASIL
- protein production: failed

Sequence: MSRPPTTPSAPQTADLVRPARRGDLDGLLALARAADAGMTNLPADRAALDDRLAASEQALIDPETRNAGAAVYLVLERQGRVIGAACVFARIGVAQPFYSYRVTRLTQLSPDLGKRVEMSVLTLVNDLTDQAEVGGLFVAPDAR
- protein production: failed

Sequence: MSRRGLLLMGQCMPCIKQNASKIRIRRMELDKNLNMYFKKDEFYFAHDPQKVCKTGDVVLIRELPERLTRLITHNVEKVVYPLGDITDPLTGKKVVVGNYREDIEMANQLFGKSEKAFDYEKAPPRGRLEGTKDFTHGETYIKYHEDGKDQPFAV
- protein production: failed

Sequence: MSRRNGGLFPTDLQTIARDIGSLLLMEAGLMTITAAVALGFQEFYAAFGFFTAAGMTAGVGGLANRGFSDAPAPQMKHGMVIAAGGWLLVAAFGSLPFLLTAWFTPPAVMDTFVPVGTDTSTWAPIRVGGTTTLSSLAYFRNPLHAFFESMSGWTGSGLTMAIHEPSLPRAVQWWRSFIQYVGGVGVIVLTVSILSRPGSGSYALYQSEAREEKIHPSVVSTVRTVWKLVVGYTVLSFALLFGAILASDSEYAESLPLWEVAWQALNHAMTGLTTGGFSVTDNSIATYNSPLVETVLLPIMILGAIAFPVHYVVLHDRQVRELVTDLQTRWLFILLTVGVVGLSVQNAWSVPATTEAFATQSFLPVSVPMLNAAQLDAVRDSTFQWVSALSCTGFQSAPIGRWLAGGKVLVAGAMVLGGAAGSTVGGIKIIRGYTIVRGIIWQFSRVFLPTNAVITARIGNRTLDRESMEREFSEAAIVTLLWLIILIISSVVLTNVAGPAFGYADALFEVASAQGNVGLSSGITGPSMPAIAEGMFVLNMWVGRLEIIPILVFIRAGLYGLDP
- protein production: failed

Sequence: MSRRYWQLDVFAERPLTGNGLAVFDDASALDDAAMQAWTRELRQFESIFLLPGDDPRAFRARIFTLEEELPFAGHPLLGAAALLHHLRGGDNEQHWTLHLASKSVALRSVRAGSGFYAEMDQGRAEFGATPDAGTCRWFAEAFSLSANDLSGHPPRVVSTGLPYLLLPVTAEALGRARQVNDLQEALDKLGAAFVYLLDVDGREGRTWDNLGLVEDVATGSAAGPVAAYLVEYGLAARGEPFVLHQGRFLERPSRLDVQVATDGSVRVGGHVQLLARAELLTSA
- protein production: not failed

Sequence: MSRSQLTILTNICLIEDLETQRVVMQYRAPENNRWSGYAFPGGHVENDEAFAESVIREIYEETGLTIQNPQLVGIKNWPLDTGGRYIVICYKATEFSGTLQSSEEGEVSWVQKDQIPNLNLAYDMLPLMEMMEAPDKSEFFYPRRTEDDWEKKIF
- protein production: not failed
